{"source": "paper PMC4007472", "about": "“Evidence for Steric Regulation of Fibrinogen Binding to Staphylococcus aureus Fibronectin-binding Protein A (FnBPA)*” (The Journal of Biological Chemistry, 2014)", "binders": {"B1": {"name": "NTD (30-kDa N-terminal proteolytic fragment of fibronectin) (domain or fragment)", "chain": "not shown", "modifications": "Limits not printed: conventional N-terminal 29-30 kDa fragment, mature residues 1-259 (1-5F1). N-terminal pyroglutamate, intradomain disulfides"}, "B2": {"name": "AF1 (rFnBPA(189–550)) (domain or fragment)", "chain": "AKVETGTDVTSKVTVEIGSIEGHNNTNKVEPHAGQRAVLKYKLKFENGLHQGDYFDFTLSNNVNTHGVSTARKVPEIKNGSVVMATGEVLEGGKIRYTFTNDIEDKVDVTAELEINLFIDPKTVQTNGNQTITSTLNEEQTSKELDVKYKDGIGNYYANLNGSIETFNKANNRFSHVAFIKPNNGKTTSVTVTGTLMKGSNQNGNQPKVRIFEYLGNNEDIAKSVYANTTDTSKFKEVTSNMSGNLNLQNNGSYSLNIENLDKTYVVHYDGEYLNGTDEVDFRTQMVGHPEQLYKYYYDRGYTLTWDNGLVLYSNKANGNEKNGPIIQNNKFEYKEDTIKETLTGQYDKNLVTTVEEEYDSS", "notes": "Cloned in pET-YSBLIC-3C; not shown: His6, N-terminal, cleaved"}, "B3": {"name": "FgD (monomeric ~85-kDa proteolytic fragment of Fg) (domain or fragment)", "chain 1": "DNTYNRVSEDLRSRIEVLKRKVIEKVQHIQLLQKNVRAQLVDMKRLEVDIDIKIRSCRGSCSRALAREVDLKDYEDQQKQLEQVIAKDLLPSR", "chain 2": "DNENVVNEYSSELEKHQLYIDETVNSNIPTNLRVLRSILENLRSKIQKLESDVSAQMEYCRTPCTVSCNIPVVSGKECEEIIRKGGETSEMYLIQPDSSVKPYRVYCDMNTENGGWTVIQNRQDGSVDFGRKWDPYKQGFGNVATNTDGKNYCGLPGEYWLGNDKISQLTRMGPTELLIEMEDWKGDKVKAHYGGFTVQNEANKYQISVNKYRGTAGNALMDGASQLMGENRTMTIHNGMFFSTYDRDNDGWLTSDPRKQCSKEDGGGWWYNRCHAANPNGRYYWGGQYTWDMAKHGTDDGVVWMNWKGSWYSMRKMSMKIRPFFPQQ", "chain 3": "AIQLTYNPDESSKPNMIDAATLKSRKMLEEIMKYEASILTHDSSIRYLQEIYNSNNQKIVNLKEKVAQLEAQCQEPCKDTVQIHDITGKDCQDIANKGAKQSGLYFIKPLKANQQFLVYCEIDGSGNGWTVFQKRLDGSVDFKKNWIQYKEGFGHLSPTGTTEFWLGNEKIHLISTQSAIPYALRVELEDWNGRTSTADYAMFKVGPEADKYRLTYAYFAGGDAGDAFDGFDFGDDPSDKFFTSHNGMQFSTWDNDNDKFEGNCAEQDGSGWWMNKCHAGHLNGVYYQGGTYSKASTPNGYDNGIIWATWKTRWYSMKKTTMKIIPFNRLTIGEGQQHHLGGAKQAGDV", "modifications": "Limits not printed: conventional plasmin fragment D1 (mature Aalpha 105-197, Bbeta 134-461, gamma 63-411), ends may be ragged; gammaA C-terminus (AGDV) used because the UniProt canonical entry is …"}, "B4": {"name": "FgγC (synthetic peptide, 17 C-terminal residues of the Fg γA chain) (peptide)", "peptide": "Ac-GEGQQHHLGGAKQAGDV-NH2", "notes": "Fibrinogen γA chain, human, the 17 C-terminal residues; also called Fg peptide; source: synthetic peptide (Severn Biotech Ltd.)"}}, "details_in_all_cases": "both partners purified", "key": {"AF1 (rFnBPA(189–550)) [1]": {"target": "B2", "assay": "SPR; AF1 immobilised by amine coupling, Fn (5.2–0.01 nM) or NTD as analyte; kinetic analysis, Langmuir 1:1 fit; 25 °C, HBS-P+"}, "AF1 (rFnBPA(189–550)) [2]": {"target": "B2", "assay": "ITC; MicroCal VP-ITC, PBS pH 7.4, 25 °C, single-site binding model; AF1 injected into NTD; AF1 with Fg"}, "[3]": {"target": "Human plasma fibronectin (Fn) (human, Plasma form by convention: no EDB or EDA, disulfide-linked heterodimer of a V+ chain (V89 chosen) and a V0 chain; the real material is a splice mixture. N-terminal pyroglutamate, glycosylated)", "assay": "SPR; AF1 immobilised by amine coupling, Fn (5.2–0.01 nM) or NTD as analyte; kinetic analysis, Langmuir 1:1 fit; 25 °C, HBS-P+"}, "[4]": {"target": "B1", "assay": "ITC; MicroCal VP-ITC, PBS pH 7.4, 25 °C, single-site binding model; AF1 injected into NTD; AF1 with Fg"}, "[5]": {"target": "T1, Intact human plasma fibrinogen (Fg) (human, UniProt P02671-2 20-644; P02675 31-491; P02679-2 27-437)", "T1 construct": "Fibrinogen Aα chain, human, from plasma; Fibrinogen Bβ chain, human, from plasma; Fibrinogen γ chain, human, from plasma; 341 kDa dimer of heterotrimers Aα, Bβ, γ; source: bought: Calbiochem-Merck-Millipore (human plasma, product no. 341576); in human plasma for the pulldown; copies: 2 + 2 + 2", "T1 sequence (looked up) 1": "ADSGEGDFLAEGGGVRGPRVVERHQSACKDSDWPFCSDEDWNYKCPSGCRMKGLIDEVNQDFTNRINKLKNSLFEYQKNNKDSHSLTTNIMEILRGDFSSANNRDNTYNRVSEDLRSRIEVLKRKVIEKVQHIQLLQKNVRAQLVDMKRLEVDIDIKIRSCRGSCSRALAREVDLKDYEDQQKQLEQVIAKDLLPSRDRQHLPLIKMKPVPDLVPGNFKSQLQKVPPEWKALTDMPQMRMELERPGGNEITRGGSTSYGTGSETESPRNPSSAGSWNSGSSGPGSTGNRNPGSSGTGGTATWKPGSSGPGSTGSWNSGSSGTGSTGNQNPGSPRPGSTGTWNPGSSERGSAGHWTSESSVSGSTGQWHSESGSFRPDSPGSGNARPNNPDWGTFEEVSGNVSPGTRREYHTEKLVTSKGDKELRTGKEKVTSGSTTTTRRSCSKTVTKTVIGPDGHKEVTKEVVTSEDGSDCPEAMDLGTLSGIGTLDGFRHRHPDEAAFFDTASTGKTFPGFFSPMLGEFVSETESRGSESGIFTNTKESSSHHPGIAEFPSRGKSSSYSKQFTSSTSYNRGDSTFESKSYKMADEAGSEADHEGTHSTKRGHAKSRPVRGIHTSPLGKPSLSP", "T1 sequence (looked up) 2": "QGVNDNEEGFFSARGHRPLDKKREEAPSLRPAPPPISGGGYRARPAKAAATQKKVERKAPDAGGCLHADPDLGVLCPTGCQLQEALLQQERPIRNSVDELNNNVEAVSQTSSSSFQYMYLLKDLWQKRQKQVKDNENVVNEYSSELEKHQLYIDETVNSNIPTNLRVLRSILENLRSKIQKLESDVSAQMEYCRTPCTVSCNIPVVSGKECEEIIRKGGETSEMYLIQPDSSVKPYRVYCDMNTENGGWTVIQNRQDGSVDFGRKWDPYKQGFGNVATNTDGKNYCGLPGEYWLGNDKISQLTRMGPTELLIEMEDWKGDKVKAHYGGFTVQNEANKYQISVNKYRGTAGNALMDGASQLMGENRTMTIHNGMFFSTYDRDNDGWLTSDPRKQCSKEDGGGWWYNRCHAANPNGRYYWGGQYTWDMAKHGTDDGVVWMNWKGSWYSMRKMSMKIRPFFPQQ", "T1 sequence (looked up) 3": "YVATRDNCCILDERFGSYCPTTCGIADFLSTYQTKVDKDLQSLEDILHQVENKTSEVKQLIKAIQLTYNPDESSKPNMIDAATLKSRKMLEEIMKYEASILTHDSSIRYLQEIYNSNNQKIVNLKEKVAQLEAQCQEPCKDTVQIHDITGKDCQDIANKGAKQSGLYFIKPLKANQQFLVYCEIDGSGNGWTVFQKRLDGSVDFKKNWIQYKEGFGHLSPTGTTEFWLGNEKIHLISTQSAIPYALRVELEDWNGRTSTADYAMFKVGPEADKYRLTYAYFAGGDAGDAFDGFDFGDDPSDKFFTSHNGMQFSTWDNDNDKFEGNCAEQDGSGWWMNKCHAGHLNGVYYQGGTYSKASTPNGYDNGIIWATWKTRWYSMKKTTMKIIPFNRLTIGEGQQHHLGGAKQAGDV", "assay": "ITC; MicroCal VP-ITC, PBS pH 7.4, 25 °C, single-site binding model; AF1 injected into NTD; AF1 with Fg"}, "rFnBPA(189–505) [6]": {"target": "T2, rFnBPA(189–505) (S. aureus 8325-4, UniProt P14738 189-505)", "T2 construct": "Cloned in pET-YSBLIC-3C; also called N2N3 (without latch); not shown: His6, N-terminal, cleaved", "T2 sequence": "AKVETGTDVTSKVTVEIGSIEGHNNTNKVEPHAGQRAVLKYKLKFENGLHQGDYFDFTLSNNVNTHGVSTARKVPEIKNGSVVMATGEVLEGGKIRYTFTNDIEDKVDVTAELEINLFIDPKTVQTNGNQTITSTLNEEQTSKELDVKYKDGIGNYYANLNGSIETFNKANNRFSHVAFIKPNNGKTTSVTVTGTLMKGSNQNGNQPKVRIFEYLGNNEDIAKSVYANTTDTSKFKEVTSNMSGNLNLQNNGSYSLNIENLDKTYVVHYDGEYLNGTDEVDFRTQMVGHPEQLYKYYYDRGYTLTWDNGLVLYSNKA", "assay": "SPR; FgD immobilised by amine coupling, rFnBPA constructs as analytes in 2-fold dilutions; equilibrium (steady-state) analysis; 25 °C, HBS-P+ (10 mM HEPES pH 7.4, 150 mM NaCl, 0.05% polysorbate 20)"}, "AF1 (rFnBPA(189–550)) [7]": {"target": "B2", "assay": "SPR; FgD immobilised by amine coupling, rFnBPA constructs as analytes in 2-fold dilutions; equilibrium (steady-state) analysis; 25 °C, HBS-P+ (10 mM HEPES pH 7.4, 150 mM NaCl, 0.05% polysorbate 20)"}, "rFnBPA(189–511)": {"target": "T3, rFnBPA(189–511) (S. aureus 8325-4, UniProt P14738 189-511)", "T3 construct": "Cloned in pET-YSBLIC-3C; also called N2N3 domains including the latch strand; not shown: His6, N-terminal, cleaved", "T3 sequence": "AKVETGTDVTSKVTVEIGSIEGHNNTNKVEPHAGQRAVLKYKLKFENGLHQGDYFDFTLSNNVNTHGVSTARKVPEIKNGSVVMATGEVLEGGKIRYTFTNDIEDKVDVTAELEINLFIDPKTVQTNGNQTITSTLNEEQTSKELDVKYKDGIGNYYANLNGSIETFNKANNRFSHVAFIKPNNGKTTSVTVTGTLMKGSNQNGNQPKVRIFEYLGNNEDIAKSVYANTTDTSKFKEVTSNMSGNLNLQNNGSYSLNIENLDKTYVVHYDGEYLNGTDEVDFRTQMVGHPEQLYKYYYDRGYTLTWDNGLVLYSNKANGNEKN", "assay": "SPR; FgD immobilised by amine coupling, rFnBPA constructs as analytes in 2-fold dilutions; equilibrium (steady-state) analysis; 25 °C, HBS-P+ (10 mM HEPES pH 7.4, 150 mM NaCl, 0.05% polysorbate 20)"}, "rFnBPA(189–505) [8]": {"target": "T2, rFnBPA(189–505)", "assay": "crystal structure; rFnBPA(189–505) 25 mg/ml with a 20-fold molar excess of FgγC; 1.83 Å"}, "AF1 (rFnBPA(189–550)) [9]": {"target": "B2", "assay": "SPR; NTD immobilised on a C1 chip; 0.5 μM AF1 + 0.5 μM Fg injected together, without or with 50 μM FgγC; 25 °C, HBS-P+"}}}
{"binder": "B1", "values": [{"measurement": "Kd", "setting": "AF1 (rFnBPA(189–550)) [1]", "result": 0.393, "unit": "nM"}, {"measurement": "Kd", "setting": "AF1 (rFnBPA(189–550)) [2]", "result": 0.7, "unit": "nM"}]}
{"binder": "B2", "values": [{"measurement": "Kd", "setting": "[3]", "result": 0.359, "unit": "nM"}, {"measurement": "dH", "setting": "[4]", "result": -35.8, "unit": "kcal/mol"}, {"measurement": "stoichiometry N", "setting": "[4]", "result": 0.89}, {"measurement": "Kd", "setting": "[5]", "result": 1100, "unit": "nM"}, {"measurement": "dH", "setting": "[5]", "result": -6.1, "unit": "kcal/mol"}, {"measurement": "stoichiometry N", "setting": "[5]", "result": 2.11}]}
{"binder": "B3", "values": [{"measurement": "Kd", "setting": "rFnBPA(189–505) [6]", "result": 3700, "unit": "nM"}, {"measurement": "Kd", "setting": "AF1 (rFnBPA(189–550)) [7]", "result": 1500, "unit": "nM"}, {"measurement": "Kd", "setting": "rFnBPA(189–511)", "result": 1500, "unit": "nM"}]}
{"binder": "B4", "values": [{"measurement": "binding result", "setting": "rFnBPA(189–505) [8]", "result": "binds"}, {"measurement": "binding result", "setting": "AF1 (rFnBPA(189–550)) [9]", "result": "binds"}]}
